Measurements from the supplement of paper PMC10266784.

B1: library; numbered along this chain (parent)
chain: MAAAAAAAAEQQSSNGPVKKSMREKAVERRSVNKEHNSNFKAGYIPIDEDRLHKTGLRGRKGNLAICVIILLFILAVINLIITLVIWAVIRIGPNGCDSMEFHESGLLRFKQVSDMGVIHPLYKSTVGGRRNENLVITGNNQPIVFQQGTTKLSVENNKTSITSDIGMQFFDPRTQNILFSTDYETHEFHLPSGVKSLNVQKASTERITSNATSDLNIKVDGRAIVRGNEGVFIMGKTIEFHMGGNMELKAENSIILNGSVMVSTTRLPSSSSGDQLGSGDWVRYKLCMCADGTLFKVQVTSQNMGCQISDNPCGNTH

Variants of: B1
Test: SGCB cell-surface expression functional score (HA stain, bin4 vs bin1, normalised to synonymous) (log10 ratio); higher = more cell-surface SGCB (functional)
Method in brief: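 HEK293 cells stably expressing alpha-, gamma- and delta-sarcoglycan received codon-saturation libraries of HA-tagged, YFP-fused human beta-sarcoglycan by lentiviral transduction at MOI <0.1, performed in duplicate. Cells positive for YFP were sorted after 72 hours and cultured for 5–7 days, then stained on ice with Alexa Fluor 647 anti-HA and fixed. Fixed cells were sorted into four 5% intensity bins and amplicon-sequenced, and the log ratio of highest-bin to lowest-bin variant frequency, as a median over codons and transductions, gives the functional score. Per section, synonymous variants were scaled to mean 0, SD 0.5.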

First: MAAAAAAAAEQQSSNGPVKKSMREKAVERRSVNKEHNSNFKAGYIPIDEDRLHKTGLRGRKGNLAICVIILLFILAVINLIITLVIWAVIRIGPNGCDSMEFHESGLLRFKQVSDMGVIHPLYKSTVGGRRNENLVITGNNQPIVFQQGTTKLSVENNKTSITSDIGMQFFDPRTQNILFSTDYETHEFHLPSGVKSLNVQKASTERITSNATSDLNIKVDGRAIVRGNEGVPIMGKTIEFHMGGNMELKAENSIILNGSVMVSTTRLPSSSSGDQLGSGDWVRYKLCMCADGTLFKVQVTSQNMGCQISDNPCGNTH [F233P]
Second: MAAAAAAAAEQQSSNGPVKKSMREKAVERRSVNKEHNSNFKAGYIPIDEDRLHKTGLRGRKGNLAICVIILLFILAVINLIITLVIWAVIRIGPNGCDSMEFHESGLLRFKQVSDMGVIHPLYKSTVGGRRNENLVITGNNQPIVFQQGTTKLSVENNKTSITSDIGMQFFDPRTQNILFSTDYETHEFHLPSGVKSLNVQKASTERITSNATSDLNIKVDGRAIVRGNEGVEIMGKTIEFHMGGNMELKAENSIILNGSVMVSTTRLPSSSSGDQLGSGDWVRYKLCMCADGTLFKVQVTSQNMGCQISDNPCGNTH [F233E]
The “SGCB cell-surface expression functional score (log10)” value of the first is lower: -1.53 for the first, 0.63 for the second.

MAAAAAAAAEQQSSNGPVKKSMREKAVERRSVNKEHNSNFKAGYIPIDEDRLHKTGLRGRKGNLAICVIILLFILAVINLIITLVIWAVIRIGPNGCDSMEFHESGLLRFKQVSDMGVIHPLYKSTVGGRRNENLVITGNNQPIVFQQGTTKLSVENNKTSITSDIGMQFFDPRTQNILFSTDYETHEFHLPSGVKSLNVQKASTERITSNATSDLNIKVDGRAIVRGNEGVHIMGKTIEFHMGGNMELKAENSIILNGSVMVSTTRLPSSSSGDQLGSGDWVRYKLCMCADGTLFKVQVTSQNMGCQISDNPCGNTH [F233H] and MAAAAAAAAEQQSSNGPVKKSMREKAVERRSVNKEHNSNFKAGYIPIDEDRLHKTGLRGRKGNLAICVIILLFILAVINLIITLVIWAVIRIGPNGCDSMEFHESGLLRFKQVSDMGVIHPLYKSTVGGRRNENLVITGNNQPIVFQQGTTKLSVENNKTSITSDIGMQFFDPRTQNILFSTDYETHEFHLPSGVKSLNVQKASTERITSNATSDLNIKVDGRAIVRGNEGVKIMGKTIEFHMGGNMELKAENSIILNGSVMVSTTRLPSSSSGDQLGSGDWVRYKLCMCADGTLFKVQVTSQNMGCQISDNPCGNTH [F233K] are within 0.2 log units of each other in “SGCB cell-surface expression functional score (log10)” value: 0.36 for the first, 0.34 for the second.

First: MAAAAAAAAEQQSSNGPVKKSMREKAVERRSVNKEHNSNFKAGYIPIDEDRLHKTGLRGRKGNLAICVIILLFILAVINLIITLVIWAVIRIGPNGCDSMEFHESGLLRFKQVSDMGVIHPLYKSTVGGRRNENLVITGNNQPIVFQQGTTKLSVENNKTSITSDIGMQFFDPRTQNILFSTDYETHEFHLPSGVKSLNVQKASTERITSNATSDLNIKVDGRAIVRGNEGVMIMGKTIEFHMGGNMELKAENSIILNGSVMVSTTRLPSSSSGDQLGSGDWVRYKLCMCADGTLFKVQVTSQNMGCQISDNPCGNTH [F233M]
Second: MAAAAAAAAEQQSSNGPVKKSMREKAVERRSVNKEHNSNFKAGYIPIDEDRLHKTGLRGRKGNLAICVIILLFILAVINLIITLVIWAVIRIGPNGCDSMEFHESGLLRFKQVSDMGVIHPLYKSTVGGRRNENLVITGNNQPIVFQQGTTKLSVENNKTSITSDIGMQFFDPRTQNILFSTDYETHEFHLPSGVKSLNVQKASTERITSNATSDLNIKVDGRAIVRGNEGVNIMGKTIEFHMGGNMELKAENSIILNGSVMVSTTRLPSSSSGDQLGSGDWVRYKLCMCADGTLFKVQVTSQNMGCQISDNPCGNTH [F233N]
The “SGCB cell-surface expression functional score (log10)” value of the first is higher: 1.15 for the first, 0.87 for the second.

Going from MAAAAAAAAEQQSSNGPVKKSMREKAVERRSVNKEHNSNFKAGYIPIDEDRLHKTGLRGRKGNLAICVIILLFILAVINLIITLVIWAVIRIGPNGCDSMEFHESGLLRFKQVSDMGVIHPLYKSTVGGRRNENLVITGNNQPIVFQQGTTKLSVENNKTSITSDIGMQFFDPRTQNILFSTDYETHEFHLPSGVKSLNVQKASTERITSNATSDLNIKVDGRAIVRGNEGVDIMGKTIEFHMGGNMELKAENSIILNGSVMVSTTRLPSSSSGDQLGSGDWVRYKLCMCADGTLFKVQVTSQNMGCQISDNPCGNTH [F233D] to MAAAAAAAAEQQSSNGPVKKSMREKAVERRSVNKEHNSNFKAGYIPIDEDRLHKTGLRGRKGNLAICVIILLFILAVINLIITLVIWAVIRIGPNGCDSMEFHESGLLRFKQVSDMGVIHPLYKSTVGGRRNENLVITGNNQPIVFQQGTTKLSVENNKTSITSDIGMQFFDPRTQNILFSTDYETHEFHLPSGVKSLNVQKASTERITSNATSDLNIKVDGRAIVRGNEGVLIMGKTIEFHMGGNMELKAENSIILNGSVMVSTTRLPSSSSGDQLGSGDWVRYKLCMCADGTLFKVQVTSQNMGCQISDNPCGNTH [F233L], the “SGCB cell-surface expression functional score (log10)” value rises from -0.146 to 0.47.

First: MAAAAAAAAEQQSSNGPVKKSMREKAVERRSVNKEHNSNFKAGYIPIDEDRLHKTGLRGRKGNLAICVIILLFILAVINLIITLVIWAVIRIGPNGCDSMEFHESGLLRFKQVSDMGVIHPLYKSTVGGRRNENLVITGNNQPIVFQQGTTKLSVENNKTSITSDIGMQFFDPRTQNILFSTDYETHEFHLPSGVKSLNVQKASTERITSNATSDLNIKVDGRAIVRGNEGVIIMGKTIEFHMGGNMELKAENSIILNGSVMVSTTRLPSSSSGDQLGSGDWVRYKLCMCADGTLFKVQVTSQNMGCQISDNPCGNTH [F233I]
Second: MAAAAAAAAEQQSSNGPVKKSMREKAVERRSVNKEHNSNFKAGYIPIDEDRLHKTGLRGRKGNLAICVIILLFILAVINLIITLVIWAVIRIGPNGCDSMEFHESGLLRFKQVSDMGVIHPLYKSTVGGRRNENLVITGNNQPIVFQQGTTKLSVENNKTSITSDIGMQFFDPRTQNILFSTDYETHEFHLPSGVKSLNVQKASTERITSNATSDLNIKVDGRAIVRGNEGVGIMGKTIEFHMGGNMELKAENSIILNGSVMVSTTRLPSSSSGDQLGSGDWVRYKLCMCADGTLFKVQVTSQNMGCQISDNPCGNTH [F233G]
The “SGCB cell-surface expression functional score (log10)” value of the first is higher: 0.99 for the first, -0.1 for the second.
